Measurements taken from patent publication US20220073563A1 (ZHEJIANG DOER BIOLOGICS, published 2022).

Experiments:
VEGF [1] = biological target: T1, VEGF (UniProt P15692-4 27-191, limits assumed); test: BLI (Octet-QK), biotin-labeled VEGF on SA probe; repeat 3
T1 construct: In the BLI assay the VEGF was biotin-labeled (Sulfo-NHS biotin, molar ratio 2:1) and loaded on an SA probe
From the text: (§1) The binding affinity of the fusion protein is detected using BLI(Bio-layer inteferometry, ForteBio). […] Biotin not involved in labeling is removed by dialysis. […] The buffer used in the experiment is PBS (containing 0.1% Tween-20). […] Based on the program settings, the fusion protein is bound, and then dissociated in PBST solution, to obtain the experimental curve. According to the result analysis software of Octet-QK, local full is used to fit the curve of the experimental results, to calculate kon, kdis and Kd.

VEGF [2] = biological target: T1, VEGF; test: BLI (Octet-QK), biotin-labeled VEGF on SA probe; average value of 3 repeats
From the text: as §1

VEGF [3] = biological target: T1, VEGF; test: VEGF receptor competitive inhibition ELISA: sample in 3-fold dilutions premixed with 1 µg/mL VEGF, added to coated VEGF Receptor 2/KDR, bound VEGF detected with anti-VEGF antibody
Protocol: Blocking the ELISA plate with 1% BSA/TBS and placing at 37° C. for 2 h. […] The KDR-coated ELISA plate is washed twice and pat-dried. Then, the gradiently diluted mixture samples are successively transferred to the ELISA plate and placed at 37° C. for 1 h, then the plate is washed 5 times. […] The plate is placed at 37° C. for 1 h and washed 5 times. […] The plate is placed at 37° C. for 1 h and washed for 6 times. After the reaction, adding the color developing solution, and developing the color at 37° C. for 15 min. Adding the stop buffer to terminate the color reaction. Reading the OD450 value on the microplate reader.

VEGF [4] = biological target: T1, VEGF; test: BLI (Octet-QK), biotin-labeled VEGF on SA probe; repeat 2
From the text: as §1

VEGF [5] = biological target: T1, VEGF; test: BLI (Octet-QK), biotin-labeled VEGF on SA probe; repeat 1
From the text: as §1

T1 sequence (P15692 other isoform, or with tags, fused parts or gaps limits assumed): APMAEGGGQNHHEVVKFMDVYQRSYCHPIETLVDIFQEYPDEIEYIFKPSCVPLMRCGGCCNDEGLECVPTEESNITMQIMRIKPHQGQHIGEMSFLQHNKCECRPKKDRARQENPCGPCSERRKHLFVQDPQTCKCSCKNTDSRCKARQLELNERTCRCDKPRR

B1: ankyrin repeat protein binding to VEGF (designed binder)
chain: GSDLDKKLLEAARAGQDDEVRILMANGADVNARDSTGWTPLHLAAPWGHPEIVEVLLKNGADVNAADFQGWTPLHLAAAVGHLEIVEVLLKYGADVNAQDKFGKTAFDISIDNGNEDLAEILQKAA
notes: Unfused ARVEGF used as comparator; also called ARVEGF
- Kd (VEGF [1]): 0.59 nM
- Kd (VEGF [2]): 0.54 nM
- IC50 (VEGF [3]): 0.64 nM
- Kd (VEGF [4]): 0.47 nM
- Kd (VEGF [5]): 0.55 nM
